Assay results as given in patent US20250000946A1 (WUXI BIOLOGICS IRELAND, published 2025).
Changes are numbered by the printed parent chain. Names may count otherwise. One block for each binder: values may come before it.

Legend:
[1] = target: T1, Human IL-2Rβ/γ (intermediate affinity IL-2 receptor) (human, UniProt P14784 27-551; P31785 23-369); test: FACS, HH cells
T1 construct: whole, on cells; also called IL-2Rβ/γc; IL-2Rβ (CD122) and γ (CD132)
T1 sequence (looked up) 1: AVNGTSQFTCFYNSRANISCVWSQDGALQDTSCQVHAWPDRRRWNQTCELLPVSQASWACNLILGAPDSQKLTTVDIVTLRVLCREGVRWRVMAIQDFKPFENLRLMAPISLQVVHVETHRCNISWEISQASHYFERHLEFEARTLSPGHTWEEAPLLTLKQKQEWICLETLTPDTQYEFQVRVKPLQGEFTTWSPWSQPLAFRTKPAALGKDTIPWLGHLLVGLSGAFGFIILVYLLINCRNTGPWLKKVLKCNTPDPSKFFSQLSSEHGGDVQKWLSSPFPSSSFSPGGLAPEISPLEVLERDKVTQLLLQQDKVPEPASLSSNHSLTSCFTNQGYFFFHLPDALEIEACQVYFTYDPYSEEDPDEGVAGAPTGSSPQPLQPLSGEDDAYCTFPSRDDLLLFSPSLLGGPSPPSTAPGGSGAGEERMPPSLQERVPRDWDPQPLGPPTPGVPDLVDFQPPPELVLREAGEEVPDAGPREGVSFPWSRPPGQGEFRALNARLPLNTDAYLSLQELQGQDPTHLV
T1 sequence (looked up) 2: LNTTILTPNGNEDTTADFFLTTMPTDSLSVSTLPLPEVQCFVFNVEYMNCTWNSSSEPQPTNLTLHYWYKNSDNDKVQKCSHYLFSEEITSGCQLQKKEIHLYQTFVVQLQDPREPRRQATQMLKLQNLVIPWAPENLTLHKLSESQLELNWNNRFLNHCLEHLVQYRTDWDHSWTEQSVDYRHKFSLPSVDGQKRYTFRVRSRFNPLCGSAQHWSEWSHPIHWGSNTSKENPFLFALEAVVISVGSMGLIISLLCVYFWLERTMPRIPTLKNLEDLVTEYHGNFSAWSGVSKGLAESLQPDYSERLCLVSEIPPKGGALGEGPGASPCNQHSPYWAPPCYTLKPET
Method: (§1) Human cutaneous T cell lymphoma HH cells, malignant non-Hodgkin's lymphoma NK92 cells and cutaneous T cell lymphoma MJ20 cells were used for binding assay. They both constitutively express IL-2Rβ (CD122) and […] (CD132), and NK92 and MJ20 also expresses IL-2Rα (CD25). HH, NK92 and MJ20 cells were cultured following ATCC guidance, then transferred to a 96-plate for binding analysis. Cells were incubated with IL-2/Fc fusion proteins at the indicated concentrations for 30 min at 4° C. to avoid internalization. Binding was detected by 2nd antibody of PE-anti-human Fc at 4° C. for another 30 min. The median fluorescence intensity (MFI) on HH and NK92 cells was measured using FACS.

[2] = target: T2, Human IL-2Rα/β/γ complex (high affinity IL-2 receptor) (human, UniProt P01589 22-272; P14784 27-551; P31785 23-369); test: FACS, MJ20 cells
T2 construct: whole, on cells
T2 sequence (looked up) 1: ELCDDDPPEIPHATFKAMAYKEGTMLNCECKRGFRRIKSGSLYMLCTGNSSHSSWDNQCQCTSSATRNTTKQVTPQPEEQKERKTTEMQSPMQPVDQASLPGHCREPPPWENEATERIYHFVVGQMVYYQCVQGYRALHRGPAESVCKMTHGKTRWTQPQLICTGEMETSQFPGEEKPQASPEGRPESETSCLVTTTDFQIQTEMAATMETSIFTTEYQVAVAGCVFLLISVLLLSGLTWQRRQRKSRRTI
T2 sequence (looked up) 2: T1 sequence (looked up) 1
T2 sequence (looked up) 3: T1 sequence (looked up) 2
Method: as §1
(§2) Affinity of IL-2 variants to IL-2Rα/β/γ supported the same results (FIG. 8 and Table 7). […] And T2U0.E44-26, T2U0.E44-27, T2U0.E44-29 and T2U0.E44-30 induced hundreds to thousands affinity reduction in Treg compared to T2U0.E44-1. Binding curves in MJ20 cells (IL-2Rα/β/γ) also achieved similar trend (FIG. 8b). As a result, the method of C-terminal truncation and substitution of 129 was available to achieve IL-2Rβγ attenuated IL-2 variants.

[3] = target: T1, Human IL-2Rβ/γ (intermediate affinity …); test: cell-based or functional assay
[4] = target: T2, Human IL-2Rα/β/γ complex (high affinity …); test: cell-based or functional assay
[5] = target: T1, Human IL-2Rβ/γ (intermediate affinity …); test: FACS, HH cells; EC50 fold vs T2U0.E44-1
Method: as §1

[6] = target: T2, Human IL-2Rα/β/γ complex (high affinity …); test: FACS, MJ20 cells; EC50 fold vs T2U0.E44-1
Method: as §1, §2

EC50 [1]: 2740 nM | EC50 [2]: 75.3 nM | Potency in human CD8+ T EC50 [3]: 371 nM | Potency reduction (CD8+ T) [3]: 18.5 fold | Potency in human Treg EC50 [4]: 1.85 nM | Potency reduction (Treg) [4]: 737 fold | Affinity reduction [5]: 51.1 fold | Affinity reduction [6]: 5.4 fold
B3: W3XX115-T2U0.E44-27.uIgG4V1 (Fc fusion)
chain: APTSSSTKKTQLQLEHLLLDLQMILNGINNYKNPKLTRMLTFKFYMPKKATELKHLQCLEEELKPLEEVLNLAQSKNFHLRPRDLISNINVIVLELKGSETTFMCEYADETATIVEFLNRWITFCQSIVESKYGPPCPPCPAPEFLGGPSVFLFPPKPKDTLMISRTPEVTCVVVDVSQEDPEVQFNWYVDGVEVHNAKTKPREEQFNSTYRVVSVLTVLHQDWLNGKEYKCKVSNKGLPSSIEKTISKAKGQPREPQVYTLPPCQEEMTKNQVSLWCLVKGFYPSDIAVEWESNGQPENNYKTTPPVLDSDGSFFLYSRLTVDKSRWQEGNVFSCSVMHEALHNHYTQKSLSLSLG
heavy: EIQLQQSGPELVKPGASVKVSCKASGYSFTDYNMYWVKQSHGESLEWIGYIDPYNGGTRYNQKFKGKATLTVDKSSSTAFMHLNSLTSEDSAVYYCARNGHWDGAWFAYWGQGTLVTVSAASTKGPSVFPLAPCSRSTSESTAALGCLVKDYFPEPVTVSWNSGALTSGVHTFPAVLQSSGLYSLSSVVTVPSSSLGTKTYTCNVDHKPSNTKVDKRVESKYGPPCPPCPAPEFLGGPSVFLFPPKPKDTLMISRTPEVTCVVVDVSQEDPEVQFNWYVDGVEVHNAKTKPREEQFNSTYRVVSVLTVLHQDWLNGKEYKCKVSNKGLPSSIEKTISKAKGQPREPQVCTLPPSQEEMTKNQVSLSCAVKGFYPSDIAVEWESNGQPENNYKTTPPVLDSDGSFFLVSRLTVDKSRWQEGNVFSCSVMHEALHNHYTQKSLSLSLG
light: DIQMNQSPSSLSASLGDTITITCHASQNINVWLSWYQQKPGNIPKLLIYKASNLHTGVPSRFSGSRSGTGFTLTISSLQPEDIATYYCHQGQSYPFTFGSGTKLEIKRTVAAPSVFIFPPSDEQLKSGTASVVCLLNNFYPREAKVQWKVDNALQSGNSQESVTEQDSKDSTYSLSSTLTLSKADYEKHKVYACEVTHQGLSSPVTKSFNRGEC
notes: IL-2 del STLT and I129V; E44 format, IgG4

EC50 [1]: 1550 nM | EC50 [2]: 233 nM | Potency in human CD8+ T EC50 [3]: 406 nM | Potency reduction (CD8+ T) [3]: 20.3 fold | Potency in human Treg EC50 [4]: 3.76 nM | Potency reduction (Treg) [4]: 1490 fold | Affinity reduction [5]: 28.8 fold | Affinity reduction [6]: 17 fold
B5: W3XX115-T2U0.E44-29.uIgG4V1 (Fc fusion)
chain: B3 chain with V129S
heavy: B3 heavy
light: B3 light
notes: IL-2 del STLT and I129S; E44 format, IgG4

EC50 [1]: 839 nM | EC50 [2]: 103 nM | Potency in human CD8+ T EC50 [3]: 446 nM | Potency reduction (CD8+ T) [3]: 22.3 fold | Potency in human Treg EC50 [4]: 0.095 nM | Potency reduction (Treg) [4]: 37.6 fold | Affinity reduction [5]: 15.6 fold | Affinity reduction [6]: 7.4 fold
B6: W3XX115-T2U0.E44-28.uIgG4V1 (Fc fusion)
chain: B3 chain with V129A
heavy: B3 heavy
light: B3 light
notes: IL-2 del STLT and I129A; E44 format, IgG4

Second part, the binder before the results:

B1: W3XX115-T2U0.E44-26.uIgG4V1 (Fc fusion)
chain: B3 chain with V129L
heavy: B3 heavy
light: B3 light
notes: IL-2 del STLT and I129L; E44 format, IgG4
EC50 [1]: 993 nM | EC50 [2]: 42.8 nM | Potency in human CD8+ T EC50 [3]: 649 nM | Potency reduction (CD8+ T) [3]: 32.5 fold | Potency in human Treg EC50 [4]: 1.16 nM | Potency reduction (Treg) [4]: 460 fold | Affinity reduction [5]: 18.5 fold | Affinity reduction [6]: 3.1 fold

B2: W3XX115-T2U0.E44-25.uIgG4V1 (Fc fusion)
chain: APTSSSTKKTQLQLEHLLLDLQMILNGINNYKNPKLTRMLTFKFYMPKKATELKHLQCLEEELKPLEEVLNLAQSKNFHLRPRDLISNINVIVLELKGSETTFMCEYADETATIVEFLNRWITFCQSIIKYGPPCPPCPAPEFLGGPSVFLFPPKPKDTLMISRTPEVTCVVVDVSQEDPEVQFNWYVDGVEVHNAKTKPREEQFNSTYRVVSVLTVLHQDWLNGKEYKCKVSNKGLPSSIEKTISKAKGQPREPQVYTLPPCQEEMTKNQVSLWCLVKGFYPSDIAVEWESNGQPENNYKTTPPVLDSDGSFFLYSRLTVDKSRWQEGNVFSCSVMHEALHNHYTQKSLSLSLG
heavy: B3 heavy
light: B3 light
notes: IL-2 del STLT and 2 aa deleted in IgG4 N-terminal hinge; E44 format
EC50 [1]: 1280 nM | EC50 [2]: 63.2 nM | Potency in human CD8+ T EC50 [3]: 84.9 nM | Potency reduction (CD8+ T) [3]: 4.2 fold | Potency in human Treg EC50 [4]: 0.022 nM | Potency reduction (Treg) [4]: 8.8 fold | Affinity reduction [5]: 23.8 fold | Affinity reduction [6]: 4.5 fold

B4: W3XX115-T2U0.E44-24.uIgG4V1 (Fc fusion)
chain: APTSSSTKKTQLQLEHLLLDLQMILNGINNYKNPKLTRMLTFKFYMPKKATELKHLQCLEEELKPLEEVLNLAQSKNFHLRPRDLISNINVIVLELKGSETTFMCEYADETATIVEFLNRWITFCQSIISKYGPPCPPCPAPEFLGGPSVFLFPPKPKDTLMISRTPEVTCVVVDVSQEDPEVQFNWYVDGVEVHNAKTKPREEQFNSTYRVVSVLTVLHQDWLNGKEYKCKVSNKGLPSSIEKTISKAKGQPREPQVYTLPPCQEEMTKNQVSLWCLVKGFYPSDIAVEWESNGQPENNYKTTPPVLDSDGSFFLYSRLTVDKSRWQEGNVFSCSVMHEALHNHYTQKSLSLSLG
heavy: B3 heavy
light: B3 light
notes: IL-2 del STLT and 1 aa deleted in IgG4 N-terminal hinge; E44 format
EC50 [1]: 438 nM | EC50 [2]: 18.4 nM | Potency in human CD8+ T EC50 [3]: 125 nM | Potency reduction (CD8+ T) [3]: 6.3 fold | Potency in human Treg EC50 [4]: 0.003 nM | Potency reduction (Treg) [4]: 1.2 fold | Affinity reduction [5]: 8.1 fold | Affinity reduction [6]: 1.3 fold
